Experimental findings from publication PMC12830604 are described below.

This experiment deals with Gαq construct with N-terminal fusion of LgBiT (UniProt P50148). In words: NanoBiT Gαq-recruitment assay (concentration-response to LTC4). The following applies: read at log[LTC4, (M)] = -6, the highest concentration; n = 3, mean ± s.e.m.; parent: est. 97; read off a plot; scale: normalized Gq response.

Take “CysLT2R with C-terminal SmBiT (wild type, NanoBiT Gαq-recruitment assay) (from UniProt Q9NS75) R136A”: the response was determined as 0.
With “CysLT2R with C-terminal SmBiT (wild type, NanoBiT Gαq-recruitment assay) (from UniProt Q9NS75) S241A” the figure was 57.
